What was measured:
GlnR [1] = target: T1, GlnR (Paenibacillus sabinae T27, UniProt X4ZZY3 1-136); assay: SPR; GlnR alone, 0-500 nM; affinity significantly higher than site II; EMSA: 20 ul, 1 ug poly[d(A-T)], 0.3 nM probe, 30 min, 25 C; binding buffer (given for protein dialysis) 20 mM HEPES pH 7.6, 1 mM EDTA, 10 mM (NH4)2SO4, 1 mM DTT, 0.2% Tween 20, 30 mM KCl. SPR: SA chip, 250 RU DNA, GlnR 0-500 nM with or without 25 nM GS; conditions: protein: recombinant; tags: N-His6; chain copies: 2; label: 5' biotin on capture linker S3; 3' overhang 20 nt on strand 2, annealed to capture linker (strand 3)
T1 sequence: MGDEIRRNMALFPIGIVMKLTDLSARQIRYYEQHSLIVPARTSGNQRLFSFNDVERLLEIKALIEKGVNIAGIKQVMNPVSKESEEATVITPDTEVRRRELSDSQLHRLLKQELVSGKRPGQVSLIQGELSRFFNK

AdeR [2] = target: T2, AdeR (Paenibacillus sabinae T27, UniProt X4ZCB7 1-417); assay: EMSA; AdeR 100-600 nM; EMSA: 20 ul, 1 ug poly[d(A-T)], 0.3 nM probe, 30 min, 25 C; binding buffer (given for protein dialysis) 20 mM HEPES pH 7.6, 1 mM EDTA, 10 mM (NH4)2SO4, 1 mM DTT, 0.2% Tween 20, 30 mM KCl. SPR: SA chip, 250 RU DNA, GlnR 0-500 nM with or without 25 nM GS; conditions: protein: recombinant; tags: N-His6; label: 3' DIG (Methods); blunt
T2 sequence: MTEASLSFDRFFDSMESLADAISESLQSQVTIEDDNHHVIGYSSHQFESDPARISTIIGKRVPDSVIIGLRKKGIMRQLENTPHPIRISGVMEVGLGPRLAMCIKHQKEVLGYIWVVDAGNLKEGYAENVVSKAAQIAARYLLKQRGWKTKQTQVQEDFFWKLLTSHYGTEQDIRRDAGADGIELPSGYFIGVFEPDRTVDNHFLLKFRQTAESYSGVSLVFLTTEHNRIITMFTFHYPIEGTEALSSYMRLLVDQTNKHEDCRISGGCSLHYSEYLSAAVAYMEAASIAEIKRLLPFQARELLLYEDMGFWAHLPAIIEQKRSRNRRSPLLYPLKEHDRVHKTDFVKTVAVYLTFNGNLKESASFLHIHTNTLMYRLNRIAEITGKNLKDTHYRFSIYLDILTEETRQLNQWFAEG

AdeR [3] = target: T2, AdeR; assay: EMSA; AdeR 100-600 nM; legend misprints 'mutated GlnR-binding site'; EMSA: 20 ul, 1 ug poly[d(A-T)], 0.3 nM probe, 30 min, 25 C; binding buffer (given for protein dialysis) 20 mM HEPES pH 7.6, 1 mM EDTA, 10 mM (NH4)2SO4, 1 mM DTT, 0.2% Tween 20, 30 mM KCl. SPR: SA chip, 250 RU DNA, GlnR 0-500 nM with or without 25 nM GS; conditions: protein: recombinant; tags: N-His6; label: 3' DIG (Methods); blunt
GlnR [4] = target: T1, GlnR; assay: EMSA; GlnR 4-1024 nM; EMSA: 20 ul, 1 ug poly[d(A-T)], 0.3 nM probe, 30 min, 25 C; binding buffer (given for protein dialysis) 20 mM HEPES pH 7.6, 1 mM EDTA, 10 mM (NH4)2SO4, 1 mM DTT, 0.2% Tween 20, 30 mM KCl. SPR: SA chip, 250 RU DNA, GlnR 0-500 nM with or without 25 nM GS; conditions: protein: recombinant; tags: N-His6; chain copies: 2; label: 3' DIG (Methods); blunt

B1: SPR probe GlnR site I (TS1) (dsDNA)
DNA 1: ATACATATGTGTAATGTAATCTGACATTTGTTTTGACGA
DNA 2: TCGTCAAAACAAATGTCAGATTACATTACACATATGTATCCTACCCTACGTCCTCCTGC
DNA 3: GCAGGAGGACGTAGGGTAGG
Does B1 bind (GlnR [1])?
Result: binds

B2: ald1 promoter 40-bp AdeR site (aldP1) (dsDNA)
DNA 1: GAATGAAAAACTGACCTTCTCATTGTGATAAAACACAATC
DNA 2: GATTGTGTTTTATCACAATGAGAAGGTCAGTTTTTCATTC
Does B2 bind (AdeR [2])?
Result: binds

B3: ald1 promoter 40-bp mutated AdeR site (aldP1M) (dsDNA)
DNA 1: GAATGAAAAACTGACCTTGGATCCGTGATAAAACACAATC
DNA 2: GATTGTGTTTTATCACGGATCCAAGGTCAGTTTTTCATTC
Does B3 bind (AdeR [3])?
Result: no binding

B4: nif promoter GlnR site I EMSA probe (nifR1) (dsDNA)
DNA 1: AACGGAAACATGATACATATGTGTAATGTAATCTGACATTTGT
DNA 2: ACAAATGTCAGATTACATTACACATATGTATCATGTTTCCGTT
Does B4 bind (GlnR [4])?
Result: binds

B5: nif promoter GlnR site II EMSA probe (nifR2) (dsDNA)
DNA 1: TTTTCAAGAAAGGTTGGAGTCAGGTTAACTGACACGTCGGATG
DNA 2: CATCCGACGTGTCAGTTAACCTGACTCCAACCTTTCTTGAAAA
Does B5 bind (GlnR [4])?
Result: binds

Source: paper PMC9894248, “Alanine synthesized by alanine dehydrogenase enables ammonium-tolerant nitrogen fixation in Paenibacillus sabinae T27”
